“And” between values parts separate entries of the source, which are not always exact repeats. Equal values may be shown once.
Columns and labels:
[1] = target: IgW in bamboo shark plasma (Chiloscyllium plagiosum (endogenous in plasma)); assay: non-reducing gel electrophoresis with Western blot (data not shown); IgW multimers in plasma, data not shown; anti-IgW [V43]
[2] = target: immunoglobulin new antigen receptor (IgNAR), secretory, in bamboo shark plasma (Chiloscyllium plagiosum (endogenous in plasma)); assay: non-reducing SDS-PAGE and SDS-agarose gel electrophoresis with Western blot; 1 µl plasma heated at 65°C for 10 min in SDS-loading buffer without reducing agents; 5% SDS-PAGE; 1.5% agarose gel with 0.1% SDS in the running buffer for plasma proteins larger than 300 kDa; blots probed with anti-IgNAR pAb or anti-IgM [Z69]; multimers counted in Ig monomers by molecular weight
[3] = target: IgM in bamboo shark plasma (Chiloscyllium plagiosum (endogenous in plasma)); assay: as above

IgW in bamboo shark plasma (natural protein)
stoichiometry N [1]: 5 and 2

immunoglobulin new antigen receptor (IgNAR), secretory, in bamboo shark plasma (natural protein)
stoichiometry N [2]: 3 and 4 and 5

IgM in bamboo shark plasma (natural protein)
stoichiometry N [3]: 5

From PMC8692893
